# Data: IntAct's records for PubMed 32017888
# B1: RILP-like protein 2 (Homo sapiens), Q969X0 (parent)
# chain: MEEPPVREEEEEEGEEDEERDEVGPEGALGKSPFQLTAEDVYDISYLLGRELMALGSDPRVTQLQFKVVRVLEMLEALVNEGSLALEELKMERDHLRKEVEGLRRQSPPASGEVNLGPNKMVVDLTDPNRPRFTLQELRDVLQERNKLKSQLLVVQEELQCYKSGLIPPREGPGGRREKDAVVTSAKNAGRNKEEKTIIKKLFFFRSGKQT
# B2: Ras-related protein Rab-8A (Homo sapiens), P61006 (parent)
# chain: MAKTYDYLFKLLLIGDSGVGKTCVLFRFSEDAFNSTFISTIGIDFKIRTIELDGKRIKLQIWDTAGQERFRTITTAYYRGAMGIMLVYDITNEKSFDNIRNWIRNIEEHASADVEKMILGNKCDVNDKRQVSKERGEKLALDYGIKFMETSAKANINVENAFFTLARDIKAKMDKKLEGNSPQGSNQGVKITPDQQKRSSFFRCVLL
# partner: B1 chain
# Variants of: B1
# Conditions: with rab8a_human RAB8A
row,Variant,effect of a mutation on the interaction
1,MEEPPVREEEEEEGEEDEERDEVGPEGALGKSPFQLTAEDVYDISYLLGRELMALGSDPRVTQLQFKVVRVLEMLEALVNEGSLALEELKMERDHLRKEVEGLRRQSPPASGEVNLGPNKMVVDLTDPNEPRFTLQELRDVLQERNKLKSQLLVVQEELQCYKSGLIPPREGPGGRREKDAVVTSAKNAGRNKEEKTIIKKLFFFRSGKQT [R130E],disrupting interaction strength
2,MEEPPVREEEEEEGEEDEERDEVGPEGALGKSPFQLTAEDVYDISYLLGRELMALGSDPRVTQLQFKVVRVLEMLEALVNEGSLALEELKMERDHLRKEVEGLRRQSPPASGEVNLGPNKMVVDLTDPNKPRFTLQELRDVLQERNKLKSQLLVVQEELQCYKSGLIPPREGPGGRREKDAVVTSAKNAGRNKEEKTIIKKLFFFRSGKQT [R130K],decreasing interaction strength
3,MEEPPVREEEEEEGEEDEERDEVGPEGALGKSPFQLTAEDVYDISYLLGRELMALGSDPRVTQLQFKVVRVLEMLEALVNEGSLALEELKMERDHLRKEVEGLRRQSPPASGEVNLGPNKMVVDLTDPNQPRFTLQELRDVLQERNKLKSQLLVVQEELQCYKSGLIPPREGPGGRREKDAVVTSAKNAGRNKEEKTIIKKLFFFRSGKQT [R130Q],decreasing interaction strength
4,MEEPPVREEEEEEGEEDEERDEVGPEGALGKSPFQLTAEDVYDISYLLGRELMALGSDPRVTQLQFKVVRVLEMLEALVNEGSLALEELKMERDHLRKEVEGLRRQSPPASGEVNLGPNKMVVDLTDPNAPRFTLQELRDVLQERNKLKSQLLVVQEELQCYKSGLIPPREGPGGRREKDAVVTSAKNAGRNKEEKTIIKKLFFFRSGKQT [R130A],decreasing interaction strength
5,MEEPPVREEEEEEGEEDEERDEVGPEGALGKSPFQLTAEDVYDISYLLGRELMALGSDPRVTQLQFKVVRVLEMLEALVNEGSLALEELKMERDHLRKEVEGLRRQSPPASGEVNLGPNKMVVDLTDPNRPRFTLQELRDVLQERNKLQSQLLVVQEELQCYKSGLIPPREGPGGRREKDAVVTSAKNAGRNKEEKTIIKKLFFFRSGKQT [K149Q],decreasing interaction strength
6,MEEPPVREEEEEEGEEDEERDEVGPEGALGKSPFQLTAEDVYDISYLLGRELMALGSDPRVTQLQFKVVRVLEMLEALVNEGSLALEELKMERDHLRKEVEGLRRQSPPASGEVNLGPNKMVVDLTDPNRPRFTLQELRDVLQERNKLESQLLVVQEELQCYKSGLIPPREGPGGRREKDAVVTSAKNAGRNKEEKTIIKKLFFFRSGKQT [K149E],decreasing interaction strength
7,MEEPPVREEEEEEGEEDEERDEVGPEGALGKSPFQLTAEDVYDISYLLGRELMALGSDPRVTQLQFKVVRVLEMLEALVNEGSLALEELKMERDHLRKEVEGLRRQSPPASGEVNLGPNKMVVDLTDPNRPRFTLQELRDVLQERNKLASQLLVVQEELQCYKSGLIPPREGPGGRREKDAVVTSAKNAGRNKEEKTIIKKLFFFRSGKQT [K149A],decreasing interaction strength
8,MEEPPVREEEEEEGEEDEERDEVGPEGALGKSPFQLTAEDVYDISYLLGRELMALGSDPRVTQLQFKVVRVLEMLEALVNEGSLALEELKMERDHLRKEVEGLRRQSPPASGEVNLGPNKMVVDLTDPNRCRFTLQELRDVLQERNKLKSQLLVVQEELQCYKSGLIPPREGPGGRREKDAVVTSAKNAGRNKEEKTIIKKLFFFRSGKQT [P131C],decreasing interaction strength
9,MEEPPVREEEEEEGEEDEERDEVGPEGALGKSPFQLTAEDVYDISYLLGRELMALGSDPRVTQLQFKVVRVLEMLEALVNEGSLALEELKMERDHLRKEVEGLRRQSPPASGEVNLGPNKMVVDLTDPNRRRFTLQELRDVLQERNKLKSQLLVVQEELQCYKSGLIPPREGPGGRREKDAVVTSAKNAGRNKEEKTIIKKLFFFRSGKQT [P131R],decreasing interaction strength
10,MEEPPVREEEEEEGEEDEERDEVGPEGALGKSPFQLTAEDVYDISYLLGRELMALGSDPRVTQLQFKVVRVLEMLEALVNEGSLALEELKMERDHLRKEVEGLRRQSPPASGEVNLGPNKMVVDLTDPNRKRFTLQELRDVLQERNKLKSQLLVVQEELQCYKSGLIPPREGPGGRREKDAVVTSAKNAGRNKEEKTIIKKLFFFRSGKQT [P131K],decreasing interaction strength
11,MEEPPVREEEEEEGEEDEERDEVGPEGALGKSPFQLTAEDVYDISYLLGRELMALGSDPRVTQLQFKVVRVLEMLEALVNEGSLALEELKMERDHLRKEVEGLRRQSPPASGEVNLGPNKMVVDLTDPNRARFTLQELRDVLQERNKLKSQLLVVQEELQCYKSGLIPPREGPGGRREKDAVVTSAKNAGRNKEEKTIIKKLFFFRSGKQT [P131A],decreasing interaction strength
12,MEEPPVREEEEEEGEEDEERDEVGPEGALGKSPFQLTAEDVYDISYLLGRELMALGSDPRVTQLQFKVVRVLEMLEALVNEGSLALEELKMERDHLRKEVEGLRRQSPPASGEVNLGPNKMVVDLTDPNRPRFTLQELQDVLQERNKLKSQLLVVQEELQCYKSGLIPPREGPGGRREKDAVVTSAKNAGRNKEEKTIIKKLFFFRSGKQT [R139Q],with no effect
13,MEEPPVREEEEEEGEEDEERDEVGPEGALGKSPFQLTAEDVYDISYLLGRELMALGSDPRVTQLQFKVVRVLEMLEALVNEGSLALEELKMERDHLRKEVEGLRRQSPPASGEVNLGPNKMVVDLTDPNRPRFTLQELEDVLQERNKLKSQLLVVQEELQCYKSGLIPPREGPGGRREKDAVVTSAKNAGRNKEEKTIIKKLFFFRSGKQT [R139E],decreasing interaction strength
14,MEEPPVREEEEEEGEEDEERDEVGPEGALGKSPFQLTAEDVYDISYLLGRELMALGSDPRVTQLQFKVVRVLEMLEALVNEGSLALEELKMERDHLRKEVEGLRRQSPPASGEVNLGPNKMVVDLTDPNRPRFTLQELADVLQERNKLKSQLLVVQEELQCYKSGLIPPREGPGGRREKDAVVTSAKNAGRNKEEKTIIKKLFFFRSGKQT [R139A],with no effect
15,MEEPPVREEEEEEGEEDEERDEVGPEGALGKSPFQLTAEDVYDISYLLGRELMALGSDPRVTQLQFKVVRVLEMLEALVNEGSLALEELKMERDHLRKEVEGLRRQSPPASGEVNLGPNKMVVDLTDPNRPRFTAQELRDVLQERNKLKSQLLVVQEELQCYKSGLIPPREGPGGRREKDAVVTSAKNAGRNKEEKTIIKKLFFFRSGKQT [L135A],decreasing interaction strength
16,MEEPPVREEEEEEGEEDEERDEVGPEGALGKSPFQLTAEDVYDISYLLGRELMALGSDPRVTQLQFKVVRVLEMLEALVNEGSLALEELKMERDHLRKEVEGLRRQSPPASGEVNLGPNKMVVDLTDPNRPKFTLQELRDVLQERNKLKSQLLVVQEELQCYKSGLIPPREGPGGRREKDAVVTSAKNAGRNKEEKTIIKKLFFFRSGKQT [R132K],disrupting interaction strength
17,MEEPPVREEEEEEGEEDEERDEVGPEGALGKSPFQLTAEDVYDISYLLGRELMALGSDPRVTQLQFKVVRVLEMLEALVNEGSLALEELKMERDHLRKEVEGLRRQSPPASGEVNLGPNKMVVDLTDPNRPEFTLQELRDVLQERNKLKSQLLVVQEELQCYKSGLIPPREGPGGRREKDAVVTSAKNAGRNKEEKTIIKKLFFFRSGKQT [R132E],disrupting interaction strength
18,MEEPPVREEEEEEGEEDEERDEVGPEGALGKSPFQLTAEDVYDISYLLGRELMALGSDPRVTQLQFKVVRVLEMLEALVNEGSLALEELKMERDHLRKEVEGLRRQSPPASGEVNLGPNKMVVDLTDPNRPQFTLQELRDVLQERNKLKSQLLVVQEELQCYKSGLIPPREGPGGRREKDAVVTSAKNAGRNKEEKTIIKKLFFFRSGKQT [R132Q],disrupting interaction strength
19,MEEPPVREEEEEEGEEDEERDEVGPEGALGKSPFQLTAEDVYDISYLLGRELMALGSDPRVTQLQFKVVRVLEMLEALVNEGSLALEELKMERDHLRKEVEGLRRQSPPASGEVNLGPNKMVVDLTDPNRPRATLQELRDVLQERNKLKSQLLVVQEELQCYKSGLIPPREGPGGRREKDAVVTSAKNAGRNKEEKTIIKKLFFFRSGKQT [F133A],disrupting interaction strength
20,MEEPPVREEEEEEGEEDEERDEVGPEGALGKSPFQLTAEDVYDISYLLGRELMALGSDPRVTQLQFKVVRVLEMLEALVNEGSLALEELKMERDHLRKEVEGLRRQSPPASGEVNLGPNKMVVDLTDPNRPRFTLQELRDVLQERNKLKSQLLVVQKELQCYKSGLIPPREGPGGRREKDAVVTSAKNAGRNKEEKTIIKKLFFFRSGKQT [E157K],decreasing interaction strength
21,MEEPPVREEEEEEGEEDEERDEVGPEGALGKSPFQLTAEDVYDISYLLGRELMALGSDPRVTQLQFKVVRVLEMLEALVNEGSLALEELKMERDHLRKEVEGLRRQSPPASGEVNLGPNKMVVDLTDPNRPRFTLQELRDVLQERNKLKSQLLVVQQELQCYKSGLIPPREGPGGRREKDAVVTSAKNAGRNKEEKTIIKKLFFFRSGKQT [E157Q],decreasing interaction strength
22,MEEPPVREEEEEEGEEDEERDEVGPEGALGKSPFQLTAEDVYDISYLLGRELMALGSDPRVTQLQFKVVRVLEMLEALVNEGSLALEELKMERDHLRKEVEGLRRQSPPASGEVNLGPNKMVVDLTDPNRPRFTLQELRDVLQERNKLKSQLLVVQAELQCYKSGLIPPREGPGGRREKDAVVTSAKNAGRNKEEKTIIKKLFFFRSGKQT [E157A],decreasing interaction strength

# Variants of: B1
# Conditions: with rab8a_human RAB8A, P61006
row,Variant,effect of a mutation on the interaction
1,MEEPPVREEEEEEGEEDEERDEVGPEGALGKSPFQLTAEDVYDISYLLGRELMALGSDPRVTQLQFKVVRVLEMLEALVNEGSLALEELKMERDHLRKEVEGLRRQSPPASGEVNLGPNKMVVDLTDPNRPAFTLQELRDVLQERNKLKSQLLVVQEELQCYKSGLIPPREGPGGRREKDAVVTSAKNAGRNKEEKTIIKKLFFFRSGKQT [R132A],disrupting interaction strength

# Variants of: B2
# Conditions: with ripl2_human RILPL2, Q969X0
row,Variant,effect of a mutation on the interaction
1,MAKAYDYLFKLLLIGDSGVGKTCVLFRFSEDAFNSTFISTIGIDFKIRTIELDGKRIKLQIWDTAGQERFRTITTAYYRGAMGIMLVYDITNEKSFDNIRNWIRNIEEHASADVEKMILGNKCDVNDKRQVSKERGEKLALDYGIKFMETSAKANINVENAFFTLARDIKAKMDKKLEGNSPQGSNQGVKITPDQQKRSSFFRCVLL [T4A],with no effect
2,MAKTYDYLFKLLLIGDSGVGKTCVLFRFSEDAFNSTFISTIGIAFKIRTIELDGKRIKLQIWDTAGQERFRTITTAYYRGAMGIMLVYDITNEKSFDNIRNWIRNIEEHASADVEKMILGNKCDVNDKRQVSKERGEKLALDYGIKFMETSAKANINVENAFFTLARDIKAKMDKKLEGNSPQGSNQGVKITPDQQKRSSFFRCVLL [D44A],disrupting interaction strength
